Source: article PMC12820563, “FoxP3 forms a head-to-head dimer in vivo and stabilizes its multimerization on adjacent microsatellites”

T1: MBP-FoxP3dN (Mus musculus, UniProt Q99JB6 188-423)
T1 sequence: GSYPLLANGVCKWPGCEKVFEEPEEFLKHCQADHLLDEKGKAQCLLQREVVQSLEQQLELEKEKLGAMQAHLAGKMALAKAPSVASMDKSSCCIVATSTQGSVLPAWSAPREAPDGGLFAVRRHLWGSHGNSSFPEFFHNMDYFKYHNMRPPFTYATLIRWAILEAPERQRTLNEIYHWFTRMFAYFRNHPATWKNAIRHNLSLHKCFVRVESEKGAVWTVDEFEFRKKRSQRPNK

T2: MBP-FoxP3dN;NFAT1 DBD (Mus musculus;Mus musculus?, UniProt Q99JB6;Q60591 188-423;394-680, |)
T2 sequence 1: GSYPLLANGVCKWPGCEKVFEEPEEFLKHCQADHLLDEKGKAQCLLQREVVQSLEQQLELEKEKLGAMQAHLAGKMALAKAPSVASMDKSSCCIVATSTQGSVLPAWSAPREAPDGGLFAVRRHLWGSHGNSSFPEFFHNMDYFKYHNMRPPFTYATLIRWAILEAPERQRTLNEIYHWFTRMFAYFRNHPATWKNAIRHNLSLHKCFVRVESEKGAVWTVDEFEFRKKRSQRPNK
T2 sequence 2: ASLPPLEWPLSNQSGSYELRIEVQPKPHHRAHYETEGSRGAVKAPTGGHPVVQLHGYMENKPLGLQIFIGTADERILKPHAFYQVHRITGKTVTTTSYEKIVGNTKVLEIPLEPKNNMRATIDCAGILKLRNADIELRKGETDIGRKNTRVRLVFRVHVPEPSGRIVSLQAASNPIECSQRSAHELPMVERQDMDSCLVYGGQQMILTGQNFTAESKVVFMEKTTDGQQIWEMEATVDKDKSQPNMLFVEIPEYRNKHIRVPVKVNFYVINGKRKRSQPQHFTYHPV


How the values were obtained:
MBP-FoxP3dN [1] = molecular target: T1, MBP-FoxP3dN; test: pull-down; Pull-down: 20 mM Tris-HCl pH 7.5, 100 mM NaCl, 1.5 mM MgCl2, room temperature, 0.4 uM MBP protein, 0.1 uM DNA (NFAT 0.2 uM); EMSA: 20 mM HEPES pH 7.5, 150 mM NaCl, 1.5 mM MgCl2, 2 mM DTT, 4 C, 0.2 uM DNA (RBR-FKH 0.8 uM, NFAT 0.4 uM); settings: protein: recombinant; tags: His6-MBP; chain copies: 2; blunt
MBP-FoxP3dN;NFAT1 DBD [2] = molecular target: T2, MBP-FoxP3dN;NFAT1 DBD; test: pull-down; NFAT enhances binding; Pull-down: 20 mM Tris-HCl pH 7.5, 100 mM NaCl, 1.5 mM MgCl2, room temperature, 0.4 uM MBP protein, 0.1 uM DNA (NFAT 0.2 uM); EMSA: 20 mM HEPES pH 7.5, 150 mM NaCl, 1.5 mM MgCl2, 2 mM DTT, 4 C, 0.2 uM DNA (RBR-FKH 0.8 uM, NFAT 0.4 uM); settings: protein: recombinant;recombinant; tags: His6-MBP;none (His6-NusA cleaved); chain copies: 2;1; blunt
MBP-FoxP3dN;NFAT1 DBD [3] = molecular target: T2, MBP-FoxP3dN;NFAT1 DBD; test: pull-down; optimal NFAT cooperativity; Pull-down: 20 mM Tris-HCl pH 7.5, 100 mM NaCl, 1.5 mM MgCl2, room temperature, 0.4 uM MBP protein, 0.1 uM DNA (NFAT 0.2 uM); EMSA: 20 mM HEPES pH 7.5, 150 mM NaCl, 1.5 mM MgCl2, 2 mM DTT, 4 C, 0.2 uM DNA (RBR-FKH 0.8 uM, NFAT 0.4 uM); settings: protein: recombinant;recombinant; tags: His6-MBP;none (His6-NusA cleaved); chain copies: 2;1; blunt
MBP-FoxP3dN [4] = molecular target: T1, MBP-FoxP3dN; test: pull-down; comparable to IR-FKHM; Pull-down: 20 mM Tris-HCl pH 7.5, 100 mM NaCl, 1.5 mM MgCl2, room temperature, 0.4 uM MBP protein, 0.1 uM DNA (NFAT 0.2 uM); EMSA: 20 mM HEPES pH 7.5, 150 mM NaCl, 1.5 mM MgCl2, 2 mM DTT, 4 C, 0.2 uM DNA (RBR-FKH 0.8 uM, NFAT 0.4 uM); settings: protein: recombinant; tags: His6-MBP; chain copies: 2; blunt
Method in brief: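 0.4 µM MBP-tagged mouse FoxP3 fragment (plus 0.2 µM NFAT fragment where included) was mixed with 0.1 µM duplex DNA in Tris buffer with NaCl and MgCl2 at room temperature. Complexes were captured on amylose resin, and proteinase K-released DNA was run on 10% TBE gels stained with SYBR Gold. In a gel-shift arm, 0.2 µM DNA and protein were held 10 min at 4 °C in HEPES buffer, then run on native gels. Binding was judged qualitatively from gels.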

Binder | binding result (MBP-FoxP3dN [4]) | other results
IR-FKHM (Fig 1C) (dsDNA) DNA 1: TAGGAAAATTTGTTTACTCGAGTAAACATC DNA 2: GATGTTTACTCGAGTAAACAAATTTTCCTA | – | binding result (MBP-FoxP3dN [1]): binds
Var2 (dsDNA) DNA 1: TTAGGAAATTTGCGCATCTCGAGTAAACAAATTT DNA 2: AAATTTGTTTACTCGAGATGCGCAAATTTCCTAA | – | binding result (MBP-FoxP3dN;NFAT1 DBD [2]): binds
Var7 (dsDNA) DNA 1: TTAGGAAATTTGTGCATTCGAGTAAACAAATTT DNA 2: AAATTTGTTTACTCGAATGCACAAATTTCCTAA | – | binding result (MBP-FoxP3dN;NFAT1 DBD [3]): binds
DNA 1 (Fig S1F) (dsDNA) DNA 1: AATTTGCGCATCTCGAGTAAACAAATTT DNA 2: AAATTTGTTTACTCGAGATGCGCAAATT | binds | –
DNA 2 (Fig S1F) (dsDNA) DNA 1: AATTTTGTTGTGTCGAGTAAACAAATTT DNA 2: AAATTTGTTTACTCGACACAACAAAATT | binds | –
DNA 3 (Fig S1F) (dsDNA) DNA 1: AATTTTGTGCATTCGAGTAAACAAATTT DNA 2: AAATTTGTTTACTCGAATGCACAAAATT | binds | –
DNA 4 (Fig S1F) (dsDNA) DNA 1: AATTTTGTTTATTCGAGTAAACAAATTT DNA 2: AAATTTGTTTACTCGAATAAACAAAATT | binds | –
